Consider two sequences from patent US20250026792A1, “SELF-ASSEMBLING PEPTIDES WITH HYALURONIC ACID BINDING DOMAINS AND METHODS OF USE THEREOF” (Northwestern University, priority 2022, published 2025).

A short description of data set [1]: Transmission electron microscopy (TEM) of peptide nanostructures. Type of data set: physicochemical. The settings on record: for TEM characterization, Phosphate Buffered Saline (i): PBS pH 7.4, 0.5% w/v, 30 minutes sonication, 24 hrs at 37° C.; for nanofiber formation in TEM, overall: both PBS and sodium cacodylate. The protocol: The sample and stain were filter-dried in between steps. Samples were collected 24 hours at 37° C. after 30 minutes of sonication. All TEM was performed on a Philips FEI Technai Spirit G2 electron microscope. Peptides were incubated in both PBS and SC.

The nature of data set [2]: Circular dichroism (CD) of peptides. Type of data set: physicochemical. The settings on record: 20 mM Sodium Cacodylate; for Ellipticity ratio (222 nm/208 nm) / Ellipticity 208 nm / Ellipticity 222 nm: 1.25 mg/mL; for Ellipticity 208 nm / Ellipticity 222 nm: CD data given as [θ]M×10^−3; for wavelength Minimum of CD profile: 5.0 mg/mL. The protocol: Data is presented in ellipticity ([θ]M×10^−3) as a function of spectral wavelength (λ).
Sodium cacodylate (SC), 20 mM pH 7.4, without and with 20% TFE was used to reduce phosphate related background signal and enhance detected structures. Circular dichroism (CD) data were collected in millidegrees, 0, and converted to molar ellipticity, [θ]M, and are expressed in units of deg×cm^2×dmol^−1. Scan speeds and digital integration times were 500 nm/min and 1 second, respectively. The data on the Y axis of the CD plots is [θ]M×10^−3. […] Consequently, CD signals are reported in the 190-260 nm range.
(In general: Circular dichroism is widely used to follow secondary structure.)

Data set [3] in a line: Concentration-dependent peptide binding to hyaluronic acid coating (biotin-streptavidin fluorescence). The note with it: for binding to hyaluronic acid with increasing concentrations of peptide (fluorescence intensity): 0-10 mg/ml peptide, PBS pH 7.4, 37° C., HA coating 10 μg/cm^2, FIG. 3; for HA binding, overall assessment: summary and discussion statements. The protocol: Peptides were incubated 24 hours at 37° C. Coatings (10 μg/cm^2) were previously dried overnight in milli-Q water. Overall significance was assessed using analysis of variance, with Tukey's multiple comparison post-hoc analysis between 1-scrm and experimental groups where n=4.
N-termini biotinylated peptides were added to coated plates at 0, 1, 2.5, 5 and 10 mg/ml overnight at 37° C. in phosphate buffered saline (PBS), pH 7.4, after which the plates were washed three times with PBS.

Data set [4] relates to extracellular matrix (ECM) components: Collagen type I, II, III and IV, elastin, hyaluronic acid and Geltrex. As to the kind of experiment: ECM specificity binding test, whole panel. The note with it: 5.0 mg/ml peptide, FIG. 4. The protocol:
(§1) Peptides were incubated 24 hours at 37° C. on collagens I-IV, elastin, hyaluronic acid, and Geltrex. Coatings (10 pig/cm^2) were previously dried overnight in milli-Q water. Overall significance was assessed using analysis of variance, with Tukey's multiple comparison post-hoc analysis between ECM groups where n=4.
(§2) Hyaluronic acid, collagens I, II, III, and IV, elastin, and Geltrex were coated onto 96-well black plates (medium binding affinity) at 10 μg/cm^2 and were dried in milli-Q water at room temperature. N-termini biotinylated peptides were added to coated plates at 0, 1, 2.5, 5 and 10 mg/ml overnight at 37° C. in phosphate buffered saline (PBS), pH 7.4, after which the plates were washed three times with PBS. Fluorescent streptavidin-488 (4 μg/mL) was added to each well and incubated at 37° C. temperature for 24 hours, then thoroughly washed with PBS. The plates were read with a fluorescence microplate reader for fluorescence intensity (Ex 490 nm, Em 525 nm). All data were normalized to the background fluorescence intensity of Streptavidin-488.

The nature of data set [5]: ECM specificity binding test, hyaluronic acid coating. The note with it: 5.0 mg/ml peptide, FIG. 4. The protocol: as §1, §2
Data set [6] can be described thus: 1H NMR of supernatant of peptide-hyaluronic acid mixtures (loss of HA and peptide from solution). It counts as binding. The note with it: 5 mg/mL HA. The protocol: FIGS. 7A-7C show Nuclear magnetic resonant (NMR) proton spectra of representative (i) hyaluronic acid peaks and (ii) biotinyl peptide peaks and for (FIG. 7A) mPEP35, (FIG. 7B) 1-scrm, and (FIG. 7C) 17x-3 in 25 mM sodium acetate buffer at pH 5.2. Samples represent supernatant (soluble component) of mixtures with 5 mg/mL HA in variable peptide mixture of 1.25, 2.5. and 5 mg/mL.
Peptides and HA were suspended in 25 mM sodium acetate buffer (pH 5.2), made up from 19 mM sodium acetate-d3, 6 mM acetic acid-d4, 10% D2O, and 1 mg/ml DSS-D6. All samples were centrifuged at 21,000 G to remove precipitate and the supernatant was collected for analysis, as only the liquid suspension could be used. NMR spectra were collected on an Avance NEO 600 MHz spectrometer at 298K with excitation sculpting used to suppress the water signal. Number of scans and receiver gain were identical for all NMR spectra.
As higher peptide binding was accompanied by apparent gel-like structure on the substrate, the binding event may be characterized by the change in concentration of either peptide or HA remaining in the solution. ^1H NMR is an ideal method for measuring changes in concentration in solution. It provides atom-specific information that can be used to distinguish signals of biotinylated peptides (6.4 ppm) from those of hyaluronic acid (3.5 ppm) as presented in FIG. 7. Sodium acetate (pH 5.2) was chosen as the buffer since it provides better spectral quality of the amide signals than pH 7.4 buffer. Focus was placed on characterizing the binding of mPEP35, 1-scrm, and 17x-3, which reflect a positive control, a negative control, and a potent binder, respectively. Measurements were taken after centrifugation to remove gel that formed when peptide and HA are mixed. It should be noted that only HN peaks of the peptide show slight chemical shift perturbation upon addition of HA.

A further data set concerns the target T1, elastin (Bos taurus, UniProt P04985).
T1 construct: purchased Sigma-Aldrich
T1 sequence (P04985 27-747): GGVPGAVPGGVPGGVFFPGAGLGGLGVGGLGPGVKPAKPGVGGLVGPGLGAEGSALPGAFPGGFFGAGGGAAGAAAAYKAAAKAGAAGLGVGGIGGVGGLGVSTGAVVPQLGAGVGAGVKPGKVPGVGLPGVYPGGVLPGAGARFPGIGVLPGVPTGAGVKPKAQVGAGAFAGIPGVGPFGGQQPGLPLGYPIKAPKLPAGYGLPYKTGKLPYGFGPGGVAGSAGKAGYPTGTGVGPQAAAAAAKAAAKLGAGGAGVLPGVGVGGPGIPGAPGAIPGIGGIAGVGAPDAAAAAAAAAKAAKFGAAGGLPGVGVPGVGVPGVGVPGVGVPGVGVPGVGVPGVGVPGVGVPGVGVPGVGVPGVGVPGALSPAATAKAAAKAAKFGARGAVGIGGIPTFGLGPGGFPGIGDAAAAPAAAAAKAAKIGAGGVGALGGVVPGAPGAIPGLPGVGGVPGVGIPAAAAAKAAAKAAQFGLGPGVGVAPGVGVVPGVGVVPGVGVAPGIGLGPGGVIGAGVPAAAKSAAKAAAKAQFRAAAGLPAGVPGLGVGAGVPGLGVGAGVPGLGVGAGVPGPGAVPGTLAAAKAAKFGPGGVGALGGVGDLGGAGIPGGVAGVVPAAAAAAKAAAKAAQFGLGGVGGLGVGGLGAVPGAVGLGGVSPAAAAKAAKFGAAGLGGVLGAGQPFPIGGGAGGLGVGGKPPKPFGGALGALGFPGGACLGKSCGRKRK
The experiment in a line: ECM specificity binding test, elastin coating. More on the design: species or system bovine. The note with it: 5.0 mg/ml peptide, FIG. 4. The protocol:
as §1
Biotinylated peptides were custom synthesized by ABI Scientific, Inc. (Sterling, VA). Uranyl acetate and TEM grids were from Ted Pella, Inc (Redding, CA). Unless specified otherwise, all water used in these experiments was Milli-Q grade. HA (˜1 MDa), collagen types I (rat), II (chicken), III (human), and IV (mouse), elastin (bovine), deuterium oxide (D2O), acetic acid-d4, sodium acetate-d3, 3-(Trimethylsilyl)propionic-2,2,3,3-d6 (DSS-D6) acid sodium salt, and 2,2,2-trifluoroethanol (TFE) and were obtained from Sigma-Aldrich (St. Louis, MO). Streptavidin (Alexa Fluor 488 conjugate) and Geltrex were obtained from Thermo Fisher Scientific Inc. (Waltham, MA). Sodium hyaluronate (5 and 60 KDa) was purchased from Lifecore Biomedical LLC (Chaska, MN). In reference to terminology, N and C termini is used to describe the amino terminal (N) and the carboxyl terminal (C) of the peptide. The biotinylated peptides are used in every experiment.
as §2

“Also recorded” adds a separate entry of the source.

Take “KTKATVLIKNKQKSKNALKQKIVLLSK [Peptide 17x-3, de novo designed peptide with five B(X7)B domains]”: in data set [1], the “TEM characterization, Phosphate Buffered Saline (i)” value is “fibers with many striations form larger fibers and the larger fibers tend to form a mesh network”; the “nanofiber formation in TEM, overall” value was “consistent nanofibers; also recorded: predominantly form fibers with striations and furthermore form a mesh network”. Moreover, in data set [2], the “Ellipticity ratio (222 nm/208 nm)” value is 0.48, the “Ellipticity 208 nm” value was −135, the “Ellipticity 222 nm” value is −64.4 and the “wavelength Minimum of CD profile” value amounted to 223 nm. In data set [2] (20% TFE), the “Ellipticity ratio (222 nm/208 nm)” value came to 0.72, the “Ellipticity 208 nm” value is −175, the “Ellipticity 222 nm” value is −126 and the “wavelength Minimum of CD profile” value was found to be 221 nm. In data set [3], the “binding to hyaluronic acid with increasing concentrations of peptide (fluorescence intensity)” value is on record as “increases dramatically”; the “HA binding, overall assessment” value was “proficient and specific binders; also recorded: HA specific and robust binders”. Also, the “HA binding compared to mPEP35” value in data set [3] (higher concentrations (5-10 mg/ml)) is “significantly stronger binder”. Further, in data set [4], the “binding to the ECMs (for 17x-3: the ECMs other than hyaluronic acid)” value is “does not bind significantly” and the “specificity of binding to ECMs” value is given as “high specificity”. For the same sequence, in data set [5], the “binding to hyaluronic acid in specificity testing” value is on record as “binds primarily”. The HA spectra retained in data set [6] (1.25 mg/mL peptide) was roughly 80%. Besides, the “HA spectra / removal of HA from solution” value in data set [6] (2.5 and 5 mg/mL peptide) was “nearly gone; also recorded: almost entirely removed; also recorded: pull all HA out of solution”. Also, the “peptide removed from solution” value in data set [6] (2.5 to 5 mg/mL peptide) is on record as roughly 90%.

Turning to “LKTKIKIIVKTKSSAKLRSKLVNSHKI [Peptide 4, 8h-2 variant]”, in data set [1], the “TEM characterization, Phosphate Buffered Saline (i)” value is “fibers that contain two striations (fibrils)”; the “nanofiber formation in TEM, overall” value is “consistent nanofibers; also recorded: predominantly form fibers with striations and furthermore form a mesh network”. For the same sequence, in data set [2], the “Ellipticity ratio (222 nm/208 nm)” value is listed as 0.54, the “Ellipticity 208 nm” value is reported as −112, the “Ellipticity 222 nm” value is −60.3 and the “wavelength Minimum of CD profile” value was determined as 225 nm. Further, in data set [2] (20% TFE), the “Ellipticity ratio (222 nm/208 nm)” value is 0.97, the “Ellipticity 208 nm” value is reported as −364, the “Ellipticity 222 nm” value is recorded as −353 and the “wavelength Minimum of CD profile” value came to 224 nm. Further, in data set [3], the “binding to hyaluronic acid with increasing concentrations of peptide (fluorescence intensity)” value was “increases dramatically”; the “HA binding, overall assessment” value is “comparable binding; also recorded: HA specific and robust binders”. In addition, the “specificity of binding to ECMs” value in data set [4] is “lower specificity than 17x-3”. The “binding to hyaluronic acid in specificity testing” value in data set [5] was “predominantly”. Further, the binding to elastin result with elastin is “moderately”.
